Results from patent publication US20020115613A1, “Treatment of prostate cancer” (priority 2001, published 2002).

B1: Tumor necrosis factor α—Related Apoptosis Inducing Ligand (protein, UniProt P50591 1-281, looked up)
Tumor necrosis factor ligand …: MAMMEVQGGPSLGQTCVLIVIFTVLLQSLCVAVTYVYFTNELKQMQDKYSKSGIACFLKEDDSYWDPNDEESMNSPCWQVKWQLRQLVRKMILRTSEETISTVQEKQQNISPLVRERGPQRVAAHITGTRGRSNTLSSPNSKNEKALGRKINSWESSRSGHSFLSNLHLRNGELVIHEKGFYYIYSQTYFRFQEEIKENTKNDKQMVQYIYKYTSYPDPILLMKSARNSCWSKDAEYGLYSIYQGGIFELKENDRIFVSVTNEHLIDMDHEASFFGAFLVG
notes: 281 amino acid type II transmembrane protein of the tumor necrosis factor α family; purchased from Biomol

Tests used:
Type in all cases: cell-based
LNCaP cells = assay: Western blotting of death receptors, caspases, Bid, cytochrome c, Akt; settings: LNCaP; for DR4 levels / expression of DR5: FIG. 2A
Protocol: (§1) LNCaP were obtained from American Type Culture Collection (Rockville, Md.) and LNCaP C4-2 cells were purchased from Urocor Inc., Oklahoma City, Okla. Cells were grown in RPMI 1640 medium supplemented with 10% (LNCaP) or 5% (LNCaP C4-2) fetal bovine serum (Hyclone, Logan, Utah) and grown in the presence of 5% CO2 at 37° C. Cells were treated with 10 μM Mifepristone (Sigma, St. Louis, Mo.) for three days or with increasing concentrations (from 200 ng/ml to 600 ng/ml) of TRAIL (Biomol Research Laboratories, Inc., Plymouth Meetings, Pa.) for varying time intervals 2, 4, 6, 8, 16, 20 and 24 hours (hr). Thus, for treatment with Mifepristone, cells were treated with Mifepristone for three days and then some cells treated (without washing) with TRAIL for indicated periods. Upon completion of the experiment, cells were harvested, and total proteins, cytosol or mitochondrial fractions were isolated as described below. At least three experiments were conducted with a minimum of four plates per treatment per experiment.
(§2) For experiments using inhibitors, the cells were pre-treated with increasing concentrations of the inhibitors (10 μM to 100 μM) for one hr and then with TRAIL. Caspase-8-specific (Z-IETD-FMK) and caspase-9-specific ([…]) inhibitors were purchased from Enzyme Systems Products, Livermore, Calif. The inhibitors were dissolved in DMSO; to limit cellular toxicity, care was taken not to exceed 0.2% DMSO in the culture medium. Appropriate controls included vehicle treated cells with or without the inhibitors.
(§3) Cells were harvested by trypsinization, washed in 1×PBS and cell pellets resuspended in lysis buffer (100 mM Tris-HCl pH 8.0, 0.1% Triton X 100 and protease inhibitor cocktail from Roche Diagnostic Corporation, Indianapolis, Ind.). Cells were incubated over ice for 30 min and centrifuged at 10,000 g at 4° C. for 10 min. The supernatant was collected and the protein concentration estimated using Bio-Rad protein reagent (Bio-Rad Laboratories, Hercules, Calif.).
(§4) Proteins (50 μg, unless stated otherwise) were separated on NuPAGE 10% Bis-Tris gels (Novex pre-cast mini gels, InVitrogen, Carlsbad, Calif.) at 100 volts for 1 hour in the presence of 1×MES-SDS running buffer (InVitrogen, Carlsbad, Calif.). Separated proteins were transferred to (PVDF) membranes (Bio-Rad Laboratories, Hercules, Calif.) at 42 volts for 2.5 hr using a Novex XCell II blotting apparatus in MES transfer buffer in the presence of NuPAGE antioxidant. Transfer of the proteins to the polyvinylidene difluoride (PVDF) membrane was confirmed by staining with Ponceau S (Sigma, St. Louis, Mo.). The blots were blocked in 5% non-fat dry milk in TBS, washed twice for 10 min each with TBS containing 0.1% Tween-20 and incubated for 2 hr at RT with primary antibody diluted in TBS containing 0.5% milk.
(§5) The following antibodies were used in the immunoblots: DR4, DR5 and cytochrome c (Imgenex, San Diego, Calif.), BID (BioSource International, Camarillo, Calif.), caspases-8, -9, and Akt (Cell Signaling Technology, Beverely, Mass.), caspase-3 (BD Pharmingen, San Diego, Calif.) Iκβ and XIAP (Cell Signaling Technology, Beverly, Mass.), cFLIP (StressGen Biotechnology Corp, Victoria, Canada), actin (Sigma Chemical Co., St. Louis, Mo.) and Cox II (Molecular Probes, Eugene, Oreg.). Immunoreactive bands were visualized using ECL detection system (Amersham, Pharmacia Biotech, Arlington Heights, Ill.) and signals were developed after exposure to X-ray film (X-Omat films, Eastman Kodak Company, Rochester, N.Y.).
(§6) For separation of mitochondrial and cytosolic fractions, cells were trypsinized, centrifuged at 600 g for 10 min at 4° C., washed twice in ice-cold PBS and re-suspended in buffer A (20 mM HEPES-KOH, pH 7.2, 10 mM KCl, 1.5 mM MgC12, 1 mM sodium-EDTA, 1 mM sodium-EGTA, 250 mM sucrose and protease inhibitor cocktail). Cells were homogenized on ice with a glass Dounce homogenizer (30 strokes) and were centrifuged at 750 g for 5 min at 4° C. […]

LNCaP C4-2 cells [1] = assay: as above; settings: LNCaP C4-2; for DR4 levels: FIG. 2B
Protocol: as §1, §2, §3, §4, §5, §6

LNCaP C4-2 cells [2] = assay: Apoptosense assay (M30 ELISA, cleaved cytokeratin 18)
Protocol: as §1, with “experiment. Two methods were used to measure induction of apoptosis by drug treatment: the MTT assay and the Apoptosense assay. The MTT assay measures mitochondrial enzyme activity and is indicative of the number of surviving cells. […] Cells were plated in petri dishes and after completion of the treatment, cells were harvested and total protein extracted as described below. […] Color was developed by adding tetramethylbenzidine solution and the optical density of the bound antibody was determined at 450 nm on a Spectra MAX 340 microplate reader (Molecular Devices, Menlo Park, Calif.). Standard solution supplied by the supplier was used for generating standard curves.” for “experiment.”

Row | Molecule | DR4 levels (LNCaP cells) | expression of DR5 (LNCaP cells) | activation of procaspase-8 (LNCaP cells; FIG. 3A) | activation of caspase-3 (LNCaP cells; FIG. 3C) | activation of caspase-7 in TRAIL-treated cells after pre-treatment with Mifepristone (LNCaP cells; Mifepristone pre-treatment, then TRAIL, FIG. 3C) | DR4 levels (LNCaP C4-2 cells [1]) | activation of procaspase-8 (LNCaP C4-2 cells [1]; FIG. 3B) | induction of caspase-3 (LNCaP C4-2 cells [1]; FIG. 3D) | M30 activity (in words) (LNCaP C4-2 cells [2]) | phosphorylated Akt (LNCaP cells; 15 min, FIG. 8) | truncated Bid (tBid) (LNCaP cells; FIG. 3A) | activation of caspase-7 (LNCaP cells; FIG. 3C) | cytochrome c levels in cytosol (LNCaP cells; FIG. 5A) | cytochrome c levels in cytosol (LNCaP C4-2 cells [1]; FIG. 5B) | M30 activity (LNCaP C4-2 cells [2]; between 8 hr to 20 hr treatment, FIG. 1D)
1 | CC#C[C@]1(O)CC[C@H]2[C@@H]3CCC4=CC(=O)CCC4=C3[C@@H](c3ccc(N(C)C)cc3)C[C@@]21C [Mifepristone] | did not show significant changes | significant increase | small increase in the activation of caspase-8 | activates caspase-3 | activated caspase-7 by 4 hr | did not show significant changes | small increase in the activation of caspase-8 | nor is it effective in inducing caspase-3 | lower M30 activity |  |  |  |  |  | 
2 | B1 | did not show significant changes | did not increase significantly | decrease in the 57 KDa procaspase-8 protein as early as 2 hr | yielded cleaved 17 KDa caspase-3 product by 2 hr |  | did not show significant changes |  |  |  | slightly decreased phosphorylated Akt | tBid was noted by 2 hr | activated caspase-7 by 20 hr | increased cytochrome c levels in cytosol within 15 min | increased cytochrome c levels in cytosol within 15 min | 1.4-2.0 U/ug
